{
  "source": "paper PMC4627693",
  "test_system": "Cys-Srctide (Biotin-ZZICGEFRRR)",
  "assay": "cross-linking",
  "data": [
    {"substance": "c-Src tyrosine kinase (recombinant)", "values": [
      {"measurement": "percent conversion to crosslinked product", "result": "40% conversion in 25 minutes"}
    ]}
  ]
}
